Laboratory results reported in publication PMC5931990.

Target: Mouse CLIC6 CLIC domain (residues 363-597) (mouse) (UniProt Q8BHB9)
Assay: SEC; analytical gel filtration after 10 minutes with 0 to 2 mM H2O2; running buffer without reducing or oxidative agents

- stoichiometry N: 2
Substance: Mouse CLIC6 CLIC domain (residues 363-597) (from UniProt Q8BHB9 363-596) (domain or fragment)
